These results are taken from article PMC6555648 (Molecular cell, 2019).

Where no end group is shown, it is not given here.

For assay [1], the target named is T1, mouse REC114 residues 1–158 (REC114N) (mouse, UniProt Q9CWH4 1-158, selenomethionine derivative (in the crystals)).
T1 sequence (looked up): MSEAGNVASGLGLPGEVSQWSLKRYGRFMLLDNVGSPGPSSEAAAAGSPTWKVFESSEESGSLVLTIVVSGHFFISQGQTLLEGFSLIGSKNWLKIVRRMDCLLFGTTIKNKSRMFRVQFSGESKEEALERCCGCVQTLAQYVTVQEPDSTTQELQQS
As to the kind of experiment: crystal structure.

The target in assay [2] is T1, mouse REC114 residues 1–158 (REC114N). Description: pull-down.

With SRESMQTIPHYLQIKEILQISKQELLPCHVMEQHWKFYVGRSHSEALLSW (domain or fragment, UniProt A0A140LI88 1808-1857, looked up, also: selenomethionine derivative) [mouse ANKRD31 residues 1808–1857 (ANKRD31C)], the binding result in assay [1] was “binds”. Take SRESMQTIPHYLQIKEILQISKQELLPCHVMEQHWKFYVGRSHSEALLSW (domain or fragment, mouse, UniProt A0A140LI88 1808-1857, looked up) [GST-tagged ANKRD31C]: the binding result in assay [2] is listed as “binds”.
